The target in the experiment is His×6-YY1(wt) (human, UniProt P25490 1-414). Put plainly: SPR. (Surface plasmon resonance follows binding to a sensor surface in real time, without labels.)

B1: His×6-YY1(260–414) (domain or fragment)
chain: LPPGGIPGIDLSDPKQLAEFARMKPRKIKEDDAPRTIACPHKGCTKMFRDNSAMRKHLHTHGPRVHVCAECGKAFVESSKLKRHQLVHTGEKPFQCTFEGCGKRFSLDFNLRTHVRIHTGDRPYVCPFDGCNKKFAQSTNLKSHILTHAKAKNNQ
Take B1: the Kd turned out to be 258 nM.

The Kd is the constant that tells how readily two partners part at equilibrium. High values mean a looser complex, low ones a tighter complex.
